In paper PMC3485041, “In Vitro Site Selection of a Consensus Binding Site for the Drosophila melanogaster Tbx20 Homolog Midline”:

T1: Midline T-box domain (MidTbx) (Drosophila melanogaster, UniProt Q8SYY8 171-393)
T1 sequence: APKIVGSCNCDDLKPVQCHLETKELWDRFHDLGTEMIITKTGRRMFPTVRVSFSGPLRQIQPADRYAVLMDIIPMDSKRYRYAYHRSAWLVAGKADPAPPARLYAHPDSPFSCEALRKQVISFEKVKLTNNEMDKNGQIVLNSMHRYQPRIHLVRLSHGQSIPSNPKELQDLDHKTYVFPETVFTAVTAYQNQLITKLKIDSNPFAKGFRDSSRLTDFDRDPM

B1: clone 42 (dsDNA)
DNA 1: CAGGTCAGTTCAGCGGATCCTGTCGGGTGTTGATGGTGTTAACGCGCGAGGGAGGCGAATTCAGTGCAACTGCAGC
DNA 2: GCTGCAGTTGCACTGAATTCGCCTCCCTCGCGCGTTAACACCATCAACACCCGACAGGATCCGCTGAACTGACCTG
B2: clone 74 (dsDNA)
DNA 1: CAGGTCAGTTCAGCGGATCCTGTCGCCTTAAGGTGCGGGCAGACAGGTGTGGAGGCGAATTCAGTGCAACTGCAGC
DNA 2: GCTGCAGTTGCACTGAATTCGCCTCCACACCTGTCTGCCCGCACCTTAAGGCGACAGGATCCGCTGAACTGACCTG
B3: clone 75 (dsDNA)
DNA 1: CAGGTCAGATCAGCGGATCCTGTCGCGACGCCTTGGGGGTGTCACGGCGCGGCAGGTCAGATCAGCGGATCCTGTCG
DNA 2: CGACAGGATCCGCTGATCTGACCTGCCGCGCCGTGACACCCCCAAGGCGTCGCGACAGGATCCGCTGATCTGACCTG
B4: clone 43 (dsDNA)
DNA 1: CAGGTCAGTTCAGCGGATCCTGTCGGGGGGCTGGTGCGAAAGTGTGTAGTGGCAGGTCAGTTCAGCGGATCCTGTCG
DNA 2: CGACAGGATCCGCTGAACTGACCTGCCACTACACACTTTCGCACCAGCCCCCCGACAGGATCCGCTGAACTGACCTG
B5: clone 50 (dsDNA)
DNA 1: CAGGTCAGTTCAGCGGATCCTGTCGAGGTGTGGCACTGTGAAGTTCGCGAGGAGGCGAATTCAGTGCAACTGCAGC
DNA 2: GCTGCAGTTGCACTGAATTCGCCTCCTCGCGAACTTCACAGTGCCACACCTCGACAGGATCCGCTGAACTGACCTG
B6: clone 72 (dsDNA)
DNA 1: GCTGCAGTTGCACTGAATTCGCCTCAGCGCCCAGTTGGTGTTAAGCCAGTCCGACAGGATCCGCTGAACTGACCTG
DNA 2: CAGGTCAGTTCAGCGGATCCTGTCGGACTGGCTTAACACCAACTGGGCGCTGAGGCGAATTCAGTGCAACTGCAGC
B7: clone 2 (dsDNA)
DNA 1: GCTGCAGTTGCACTGAATTCGCCTCACCATCACACCAGCGAAGTGACAGTTCGACAGGATCCGCTGAACTGACCTG
DNA 2: CAGGTCAGTTCAGCGGATCCTGTCGAACTGTCACTTCGCTGGTGTGATGGTGAGGCGAATTCAGTGCAACTGCAGC
B8: clone 4 (dsDNA)
DNA 1: GCTGCAGTTGCACTGAATTCGCCTCCGTGCGTACGTGTCAATTCGTCAAGGCCGACAGGATCCGCTGAACTGACCTG
DNA 2: CAGGTCAGTTCAGCGGATCCTGTCGGCCTTGACGAATTGACACGTACGCACGGAGGCGAATTCAGTGCAACTGCAGC
B9: clone 57 (dsDNA)
DNA 1: CAGGTCAGTTCAGCGGATCCTGTCGACATGGGAGGCTGTTACGGCGCGAACGAGGCGAATTCAGTGCAACTGCAGC
DNA 2: GCTGCAGTTGCACTGAATTCGCCTCGTTCGCGCCGTAACAGCCTCCCATGTCGACAGGATCCGCTGAACTGACCTG
B10: clone 67 (dsDNA)
DNA 1: CAGGTCAGTTCAGCGGATCCTGTCGCTACGGAGGTGATTACACGCGAAATCGAGGCGAATTCAGTGCAACTGCAGC
DNA 2: GCTGCAGTTGCACTGAATTCGCCTCGATTTCGCGTGTAATCACCTCCGTAGCGACAGGATCCGCTGAACTGACCTG
B11: Tbx20.MacIndoe (dsDNA)
DNA 1: GGAGGTGTGAGGCGA
DNA 2: TCGCCTCACACCTCC
B12: mid.Liu (dsDNA)
DNA 1: GGAAGTAGGTCAAG
DNA 2: CTTGACCTACTTCC
B13: mid.Najand (dsDNA)
DNA 1: CAAGGTGTCAAGGCG
DNA 2: CGCCTTGACACCTTG
B14: mid.Najand Region 1 (dsDNA)
DNA 1: CACCCCCCCAAGGCG
DNA 2: CGCCTTGGGGGGGTG
B15: mid.Najand Region 2 (dsDNA)
DNA 1: CAAGGTGTCAAGGAA
DNA 2: TTCCTTGACACCTTG
B16: T-site (Brachyury palindrome) (dsDNA)
DNA 1: AATTTCACACCTAGGTGTGAAATT
DNA 2: AATTTCACACCTAGGTGTGAAATT

biological target: T1, Midline T-box domain (MidTbx); test: EMSA; 20 mM HEPES pH 7.9, 100 mM KCl, 0.2 mM EDTA, 0.2 mM EGTA, 20% glycerol, 0.1% NP40, 0.5 mM DTT, 10 mg/ml BSA, 8 ng/ul poly(dI-dC); room temperature 1 h; 15 fmol; details: protein: recombinant; tags: C-terminal 6xHis (pET-21a); label: 5' biotin (primer F); blunt

Binder | binding result
B1 | binds
B2 | binds
B3 | binds
B4 | binds
B5 | binds
B6 | binds
B7 | binds
B8 | binds
B9 | binds
B10 | binds

same assay, conditions: protein: recombinant; tags: C-terminal 6xHis (pET-21a); label: 5' biotin; blunt

Binder | binding result
B11 | binds
B12 | no binding
B13 | binds
B14 | no binding
B15 | binds

same assay, conditions: protein: recombinant; tags: C-terminal 6xHis (pET-21a); label: 5' biotin; blunt; self-complementary, 2 copies

Binder | binding result
B16 | binds
